The results in this text go back to PMC11271964, “Design and characterization of hyperactive mutants of the Agrobacterium tumefaciens telomere resolvase, TelA”.

Where a chain is given by its changes, count along the chain named.

Series [1] concerns the target TelA (107–442) N-terminal domain deletion mutant with the E337K mutation (Agrobacterium tumefaciens).
The target of another series is T1, TelA wild type (Agrobacterium tumefaciens, UniProt Q7CWV1 1-442).
T1 sequence: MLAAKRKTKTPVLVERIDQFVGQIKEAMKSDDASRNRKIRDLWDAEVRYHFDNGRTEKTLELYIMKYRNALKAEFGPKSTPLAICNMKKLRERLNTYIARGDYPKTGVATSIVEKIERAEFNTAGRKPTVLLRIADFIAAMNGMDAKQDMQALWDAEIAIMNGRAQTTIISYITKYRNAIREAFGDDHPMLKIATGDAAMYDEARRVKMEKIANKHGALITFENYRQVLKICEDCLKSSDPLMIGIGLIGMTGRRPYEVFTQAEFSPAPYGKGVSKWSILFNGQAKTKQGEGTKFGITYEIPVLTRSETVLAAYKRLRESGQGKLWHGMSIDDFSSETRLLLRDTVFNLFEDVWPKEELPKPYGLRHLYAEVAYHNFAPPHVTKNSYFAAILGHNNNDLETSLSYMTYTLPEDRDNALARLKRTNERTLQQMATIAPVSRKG
Kind of series: EMSA; 2 mM Ca2+; c1 and c2 complexes; EMSA: HEPES pH 7.6, 1 mM DTT, 2 mM CaCl2, 100 ug/mL BSA, 50 mM potassium glutamate, 0.8 ug/mL supercoiled pUC19 competitor, 76 ng/mL heparin sulphate, 2 nM labeled rTel, 0 C. As to conditions: protein: recombinant; chain copies: 2; label: 5'-fluorescein on strand 1; 5' overhang 2 nt at both ends.

Series [2] addresses T2, TelA N-terminal domain (N; K9E) (Agrobacterium tumefaciens, UniProt Q7CWV1 1-106, K9E).
T2 sequence: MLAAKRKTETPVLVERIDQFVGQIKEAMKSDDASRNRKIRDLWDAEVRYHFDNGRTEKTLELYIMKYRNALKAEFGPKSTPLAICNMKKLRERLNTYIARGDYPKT
Kind of series: EMSA; 2 mM Ca2+; EMSA: HEPES pH 7.6, 1 mM DTT, 2 mM CaCl2, 100 ug/mL BSA, 50 mM potassium glutamate, 0.8 ug/mL supercoiled pUC19 competitor, 76 ng/mL heparin sulphate, 2 nM labeled rTel, 0 C. As to conditions: protein: recombinant; label: 5'-fluorescein on strand 1; 5' overhang 2 nt at both ends. On the technique in general: In EMSA bound probe runs differently from free probe, usually more slowly.

For a further series, the target named is T3, TelA (ΔN) (Agrobacterium tumefaciens, UniProt Q7CWV1 107-442).
T3 sequence: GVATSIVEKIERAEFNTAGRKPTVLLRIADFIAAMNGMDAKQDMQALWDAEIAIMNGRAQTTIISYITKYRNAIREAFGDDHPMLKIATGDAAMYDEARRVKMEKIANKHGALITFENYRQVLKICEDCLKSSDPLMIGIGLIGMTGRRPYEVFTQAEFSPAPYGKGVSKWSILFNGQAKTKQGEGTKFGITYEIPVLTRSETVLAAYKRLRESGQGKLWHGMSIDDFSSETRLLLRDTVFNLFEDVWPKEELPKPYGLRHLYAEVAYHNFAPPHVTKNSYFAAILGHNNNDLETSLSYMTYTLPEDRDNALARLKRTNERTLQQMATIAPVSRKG
The series is described as above. Particulars: protein: recombinant.

The target in a further series is T4, TelA (ΔC3; D202AE337K) (Agrobacterium tumefaciens, UniProt Q7CWV1 1-439, D202A;E337K).
T4 sequence: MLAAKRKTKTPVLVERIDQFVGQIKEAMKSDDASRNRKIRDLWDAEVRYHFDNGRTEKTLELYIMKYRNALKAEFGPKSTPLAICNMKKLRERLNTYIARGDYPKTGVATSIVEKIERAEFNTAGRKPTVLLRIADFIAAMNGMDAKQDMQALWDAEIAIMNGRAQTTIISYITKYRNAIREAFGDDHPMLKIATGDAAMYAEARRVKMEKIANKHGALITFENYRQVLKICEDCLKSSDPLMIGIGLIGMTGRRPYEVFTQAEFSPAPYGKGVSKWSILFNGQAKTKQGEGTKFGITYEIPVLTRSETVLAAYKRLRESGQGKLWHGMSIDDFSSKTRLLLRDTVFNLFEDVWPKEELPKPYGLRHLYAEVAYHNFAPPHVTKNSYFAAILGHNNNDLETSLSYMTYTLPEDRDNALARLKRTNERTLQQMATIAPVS
Described as above. As to conditions: protein: recombinant; chain copies: 2; label: 5'-fluorescein on strand 1; 5' overhang 2 nt at both ends.

The next series concerns the target T5, TelA (ΔNΔC3; D202RE337K) (Agrobacterium tumefaciens, UniProt Q7CWV1 107-439, D202R;E337K).
T5 sequence: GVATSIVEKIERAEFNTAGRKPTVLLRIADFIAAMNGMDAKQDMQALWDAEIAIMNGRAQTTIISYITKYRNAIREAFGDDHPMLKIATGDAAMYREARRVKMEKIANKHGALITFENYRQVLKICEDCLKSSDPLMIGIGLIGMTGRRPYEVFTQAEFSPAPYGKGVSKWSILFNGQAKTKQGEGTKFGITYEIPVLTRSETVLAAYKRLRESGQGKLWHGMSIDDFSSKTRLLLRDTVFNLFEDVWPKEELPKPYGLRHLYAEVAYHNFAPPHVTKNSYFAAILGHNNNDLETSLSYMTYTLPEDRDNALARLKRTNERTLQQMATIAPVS
The series is described as above. As to conditions: protein: recombinant; chain copies: 2; label: 5'-fluorescein on strand 1; 5' overhang 2 nt at both ends.

The target in series [3] is T6, TelA N-terminal domain (N) (Agrobacterium tumefaciens, UniProt Q7CWV1 1-106).
T6 sequence: T2 sequence with E9K
Kind of series: EMSA; 2 mM Ca2+; laddering bandshift; EMSA: HEPES pH 7.6, 1 mM DTT, 2 mM CaCl2, 100 ug/mL BSA, 50 mM potassium glutamate, 0.8 ug/mL supercoiled pUC19 competitor, 76 ng/mL heparin sulphate, 2 nM labeled rTel, 0 C. As to conditions: protein: recombinant; label: 5'-fluorescein on strand 1; 5' overhang 2 nt at both ends.

In turn, “TelA (1–106), N-terminal domain of the Agrobacterium tumefaciens telomere resolvase TelA (from UniProt A0A822V2W1 1-106) (domain or fragment)” gave a fold reduction of the initial rate of telomere resolution by (ΔN; E337K) at 0°C when the N-terminal domain (N, 800 nM, about 10-fold molar excess) is added in trans in series [1] of 22 fold.

Consider “TelA (1–106) N-terminal domain with the K9E mutation (from UniProt A0A822V2W1 1-106) (domain or fragment)”, for which, in series [1], the fold reduction of the initial rate of telomere resolution by (ΔN; E337K) at 0°C when (N; K9E) is added in trans turned out to be 10 fold.

B1: rTel (OGCB951F/OGCB952) (dsDNA)
DNA 1: AACTCTAACCATTGCGCGATCGATCATAATAACAATATCATGATATTGTTATTGTAATCGATCGCGGATCCCGGGCGTAGCCACGTAGGT
DNA 2: GAACCTACGTGGCTACGCCCGGGATCCGCGATCGATTACAATAACAATATCATGATATTGTTATTATGATCGATCGCGCAATGGTTAGAG
Turning to B1, the binding result is “binds” with TelA wild type; “no binding” in series [2]; “no binding” with TelA (ΔN) (chain copies: 2, label: 5'-fluorescein on strand 1, 5' overhang 2 nt at both ends); “binds” with TelA (ΔC3; D202AE337K); “binds” with TelA (ΔNΔC3; D202RE337K); “binds” in series [3].

B2: hairpin telomere (hp), OKBA28F (structured_DNA)
DNA: ATCCCTCTAACCATTGCGCGATCGATCATAATAACAATATCATGATATTGTTATTATGATCGATCGCGCAATGGTTAGAGG
On to B2, for which, in the series with TelA (ΔN) (label: 5'-fluorescein, hairpin, 5' overhang 3 nt), the binding result is given as “no binding”.
